In data set [1] the test system is LL2^cisA and AT-3^DoxA cells. The data set is described as follows: In vitro co-culture of chemotherapy-arrested mouse tumor cells with PMN. In kind it is cell-based. How it is done: (§1) The KPr cell line (16) was maintained in RPMI 1640 medium (Corning) and 10% FBS (Gibco). Treatment of KPr cells with 250 nM 4-hydroxytamoxifen (4-OHT, Sigma-Aldrich) induced p53 expression. p53-induced cells (KPr^p53) were stained with CellTrace dye for 20 min at 37° C. according to the manufacturer's instructions (Life Technologies) and seeded at 8500 cells/cm^2 in culture in a T175 tissue culture-treated flask (Gibco). After 7 days, cells were detached and sorted based on the CellTrace dye intensity as proliferating (KPr^p53P, with lower CellTrace) and arrested cells (KPr^p53A, with higher-intensity CellTrace; see FIG. 1A for representative image). LL2 cells were seeded at 1000 cells/cm2 and treated for 3 days with 2.5 μM cisplatin (Selleckchem). After that, cells were stained with CellTrace and sorted as described above. OVCAR3 cell senescence was induced by treating 5×10^4 cells/cm2 with 0.5 μM cisplatin for 72 hours. After that time, cells were stained with CellTrace and sorted. A549 senescence was induced by 72-hour treatment with 4 μM cisplatin and cells were sorted after staining with CellTrace. Time points for sorting were chosen as the best to observe separation between arrested and proliferating cells. Cells were sorted on Astrios (Beckman Coulter) or Melody (Becton Dickinson) fluorescence-activated cell sorters.
(§2) Arrested tumor cells were plated at 100 cells/cm^2 in a 48-well tissue culture-treated plate (Costar) for coculture experiments. After 24 hours, PMN-MDSC or PMN were added at indicated ratios. Cocultures were maintained for 48 hours in RPMI 1640+10% FBS in the presence of mouse recombinant GM-CSF (10 ng/ml; Rocky Hill) to ensure neutrophil viability. All control conditions were in the presence of media with GM-CSF. All indicated supplements (NE, S100A8/A9, BGJ398, ICI 118-551, IL-2, MPO inhibitor, LPS, lipids, PMA, and thapsigargin 1 μM) were added to culture at the same time as PMN and maintained for 48 hours. After that, media were removed and replaced by fresh media without GM-CSF. After 1 week, GFP^+ cells in wells were counted via an inverted microscope. When lipid extracts were used, lipids were added to dormant cells in culture at 1 to 0.05 or 0.01 nmol as indicated in each experiment.

The test system of the next data set is PMN. The data set is described as follows: PMN viability (proportion of live PMN). In kind it is cell-based, mouse. How it is done:
FIG. 2A-FIG. 2K show neutrophil-mediated reactivation of dormant cells is regulated by stress-induced S100A8/A9. (FIG. 2A) Fold increase in the number of KPr^p53A cells cultured in the presence of PMN and S100A8/A9 or indicated cytokines relative to KPr^p53A cells cultured with PMN. Three independent experiments with 16 replicates were performed. Mean±SEM of one experiment is shown. (FIG. 2B) Fold increase in the number of KPr^p53A cells cultured in the presence of PMN and LPS relative to KPr^p53A cells cultured with PMN or alone. Means±SEM of three independent experiments with 16 replicates each are shown. (FIG. 2C) Fold increase in the number of KPr^p53A cells cultured in the presence of S100A8/A9 alone, PMN and S100A8/A9, or PMN-MDSC relative to KPr^p53A cultured alone. Means±SEM of 10 independent experiments with 16 replicates each are shown. (FIG. 2D) S100A8/A9 protein produced by PMN after treatment with indicated hormones or LPS was measured by ELISA. PMN-MDSC were isolated from spleens of Lewis lung carcinoma tumor-bearing mice. Means±SEM and results of each independent experiment with three replicates are shown. (FIG. 2E) S100A8/A9 protein secreted in vitro from PMN and PMN treated with NE with or without ICI-118; […] as measured by ELISA. Means±SEM and results of independent experiment with three replicates are shown. (FIG. 2F) Flow cytometry staining of ADRB2 receptor (dark gray) on PMN isolated from mouse spleen. Isotype control, light gray. Representative histogram of three experiments is shown. (FIG. 2G) Fold increase in the number of KPr^p53A cells cultured with PMN alone, NE alone, PMN and NE together, and PMN and NE plus ICI-118; 553 relative to KPr^p53A cells cultured alone (Ctrl). Ten independent experiments with 16 replicates for each experiment were performed. Means±SEM in a representative experiment are shown. (FIG. 2H) Number of KPr^p53A cells cultured in the presence of PMN from S100a9KO mice alone or together with NE relative to KPr^p53A cells cultured alone (ctrl). Means±SEM are reported for 16 replicates. (FIG. 2I) Percentage of live PMN after overnight incubation with NE, S100A8/A9, or LPS. Each dot represents the average of three experimental replicates of one single experiment. Means±SEM are shown for each group. (FIG. 2J) Fold increase in number of LL2^CisA cells cultured with PMN alone or together with S100A8/A9 or NE relative to LL2^CisA cultured alone (Ctrl). Means±SEM of three independent experiments with 16 replicates each are shown. […] In all panels, P values were calculated using ANOVA test with correction for multiple comparisons.
FIG. 11A-FIG. 11G show the mechanism of dormant tumor cell reactivation. […] P values were calculated by ANOVA test with correction for multiple comparisons. […]

In the next data set the test system is KPr^p53A cells. The data set is described as follows: In vitro co-culture of dormant tumor cells with PMN (count of GFP+ cells). In kind it is cell-based, mouse. How it is done:
as §1, §2

Data set [2] concerns A549^cisA and OVCAR3^cisA cells. Kind of data set: In vitro co-culture of chemotherapy-arrested human tumor cells with human PMN. In kind it is cell-based. The conditions noted are these: PMN and NE plus ICI-118,551. How it is done:
as §1, §2

In the case of `Cc1ccc(OCC(O)C(C)NC(C)C)c2c1CCC2` (stereo not drawn) [ICI-118,551], in data set [1] (PMN and NE plus ICI-118,551), the “NE- and PMN-induced reactivation of dormant mouse tumor cells, effect of β-blocker” value is listed as “this effect was abrogated”. For the same molecule, in the data set with PMN (proportion of live PMN after exposure), the “cytotoxic effect on PMN” value is given as “no cytotoxic effect on PMN”. In the data set with KPr^p53A cells (PMN and NE plus ICI-118,551), the “proliferation of KPr^p53A cells induced by PMN and NE, effect of β-blocker” value is listed as “this effect was abrogated”. The “NE- and PMN-induced reactivation of dormant human tumor cells, effect of β-blocker” value in data set [2] is given as “this effect was abrogated”.

B1: S100A8/A9: recombinant S100A8/A9, heterocomplex of two S100 calcium binding proteins (calprotectin) (protein, UniProt P27005 2-89; P31725 2-113, looked up)
Protein S100-A8: PSELEKALSNLIDVYHNYSNIQGNHHALYKNDFKKMVTTECPQFVQNINIENLFRELDINSDNAINFEEFLAMVIKVGVASHKDSHKE
Protein S100-A9: ANKAPSQMERSITTIIDTFHQYSRKEGHPDTLSKKEFRQMVEAQLATFMKKEKRNEALINDIMEDLDTNQDNQLSFEECMMLMAKLIFACHEKLHENNPRGHGHSHGKGCGK
Turning to B1, the “proliferation of arrested mouse tumor cells cultured with mouse PMN plus supplement” value in data set [1] (LL2^cisA, AT-3^DoxA) is “activated proliferation”. Moreover, in the data set on PMN, the PMN viability entry is on record as “did not affect PMN viability”. For the same molecule, in the data set with KPr^p53A cells (absence of PMN), the “reactivation/proliferation of KPr^p53A cells, supplement alone” value is “no effect”. Also, in the data set with KPr^p53A cells (monocytes instead of PMN), the “reactivation of KPr^p53A cells cultured with MON plus supplement” value is on record as “failed to reactivate KPr^p53A cells”. Besides, the “reactivation/proliferation of KPr^p53A cells cultured with PMN plus supplement” value in the data set with KPr^p53A cells (supplement added with PMN, LPS 0.5 to 2 μg/ml) is “enabled PMN to induce proliferation of KPr^p53A cells”.

These data come from patent publication US20230151434A1, “REAWAKENING OF DORMANT TUMOR CELLS BY MODIFIED LIPIDS DERIVED FROM STRESS ACTIVATED NEUTROPHILS” (The Wistar Institute of Anatomy and Biology, priority 2020, published 2023).
